From patent US20220380455A1 (Alector, published 2022)
Values joined by “and” are separate entries in the source; they are usually repeats but may differ in a detail not shown here. Equal values may be shown once.

Key:
MS4A6A ECL2 peptide [1] = molecular target: T1, MS4A6A ECL2 peptide (human); assay: array SPR (Carterra MX-96), antibody captured on anti-mouse IgG-Fc, ECL2 peptide injected
T1 construct: also called MS4A6A ECL-2 peptides
T1 peptide: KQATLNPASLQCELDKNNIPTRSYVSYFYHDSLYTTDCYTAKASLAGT
Procedure: (§1) Binding kinetic characterization of the purified antibodies to MS4A6A ECL1 and ECL2 peptides was performed by Carterra (South San Francisco, Calif.) using a proprietary array Surface Plasmon Resonance (SPR) instrument (MX-96) as follows. Antibodies were printed onto a CMD5OOD chip (Xantec #SPMX CMD500D lot #SC CMD500D0117.a Exp. 31.12.18) using the Continuous Flow Microspotter (CFM). First, the chip was activated with 100 mM MES pH 5.5, 100 μL EDC (133 mM final), 100 μL of S-NHS (33.3 mM final), for 7 minutes. A lawn of anti-mouse IgG-Fc (Jackson ImmunoResearch CAT #115-005-071 lot#130410) was injected for 15 minutes to establish a surface density of 10000-12000 RU, after which the chip surface was deactivated with 1 M ethanolamine at pH 8.5 for 10 minutes. Anti-MS4A6A antibodies in question, in the form of hybridoma supernatants diluted 2:1 with HBS-EP+buffer (Teknova CAT #H8022), were then printed as duplicates with a 20 minute and a 5 minutes print from the same sample solution. Control antibodies were diluted to 20 μ/ml for printing.
(§2) To perform kinetic analysis, the peptides in question were prepared in HBS-EP+buffer with lmg/ml BSA at final assay concentrations of 2000 nM, 400 nM, 80 nM, 16 nmM, and 3.2 nM. These were then injected on the chip for five minutes, followed by a seven-minute dissociation period at 8 uL per second in a non-regenerative kinetic series. Duplicate measurements for each anti-MS4A6A antibody were taken to ensure reproducibility.
(§3) Kₐ (association rate constant; Kₒₙ), Kd (dissociation rate constant; Koff) and KD (equilibrium constant) to MS4A6A ECL-2 peptides were calculated for each of the 23 anti-MS4A6A antibodies tested, the results of which are shown below in Table 5 (clones that bound too weakly to determine these values are denoted as N/A in Table 5).

cynomolgus (cyno) MS4A6A [2] = molecular target: T2, cynomolgus (cyno) MS4A6A (cynomolgus, UniProt Q9H2W1 1-246 (human entry)); assay: flow cytometry, hybridoma supernatant, HEK293 transfected with cyno MS4A6A over parental HEK293; Screen 2
T2 construct: Full-length protein expressed in transfected HEK293, U937 or K562 cells (flow cytometry)
T2 chain: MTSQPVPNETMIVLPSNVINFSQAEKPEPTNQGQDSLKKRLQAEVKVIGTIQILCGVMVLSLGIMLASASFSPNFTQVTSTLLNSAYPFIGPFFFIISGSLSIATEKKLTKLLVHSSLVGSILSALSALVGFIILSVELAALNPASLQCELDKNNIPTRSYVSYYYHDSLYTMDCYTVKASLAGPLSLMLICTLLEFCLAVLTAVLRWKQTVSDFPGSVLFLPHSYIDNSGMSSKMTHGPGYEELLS
Procedure: (§4) Positive clones were expanded and then rescreened for specificity against HEK293 cells overexpressing cyno MS4A6A and parental HEK293 cells. Briefly, previously prepared, cryopreserved transiently-transfected cells were labeled with LIVE/DEAD Fixable Aqua Dead Cell Stain Kit (ThermoFisher Scientific L34957) on ice for 30 minutes. After a wash with PBS, 2×10⁵ cells were aliquoted per well in 96-well round bottom plates and incubated with 50 μl of culture supernatant on ice for 30 mins. […] Following this secondary incubation, the cells were again washed twice with ice-cold FACS buffer and resuspended in a final volume of 200 μl of FACS buffer. Analysis was performed on a FACS Canto system (BD Biosciences), with sort gates drawn to exclude dead (Aqua-positive) cells. […] The screen was repeated twice, and the numbers reported here represent the ratio of mean fluorescence level in transfected cells over parental cells.

MS4A6A ECL1 peptide [3] = molecular target: T3, MS4A6A ECL1 peptide (human); assay: array SPR (Carterra MX-96), antibody captured, peptide injected
T3 construct: the description elsewhere gives ECL1 as 68-84; Human and cyno ECL1 are said to be identical
T3 peptide: SASFSPNFTQVTSTLLNS
Procedure: as §1, §2, §3

cynomolgus (cyno) MS4A6A [4] = molecular target: T2, cynomolgus (cyno) MS4A6A; assay: flow cytometry, hybridoma supernatant, HEK293 transfected with cyno MS4A6A over parental HEK293; Screen 1
Procedure: as §4

MS4A6A ECL2 peptide [5] = molecular target: T1, MS4A6A ECL2 peptide; assay: array SPR (Carterra MX-96), antibody captured, peptide injected; both duplicates N/A
Procedure: as §1, §2, §3

BSA-MS4A6A-ECL2 peptide = molecular target: T4, BSA-MS4A6A-ECL2 peptide (human, BSA-conjugated); assay: peptide ELISA, hybridoma supernatant
T4 construct: Synthetic peptide derived from ECL2, conjugated to BSA, coated on the ELISA plate; also called MS4A6A-ECL2 BSA conjugated peptide; BSA-MS4A6A-ELC2 peptide
T4 peptide: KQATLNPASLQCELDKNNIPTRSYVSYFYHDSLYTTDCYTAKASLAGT
Procedure: (§5) Anti-MS4A6A hybridoma supernatants were tested for binding to MS4A6A peptides derived from ECL1 (amino acid residues 68-85 of human MS4A6A of SEQ ID NO:1) and ECL2 (amino acid residues 138-185 of human MS4A6A of SEQ ID NO:1) sequences, using an enzyme-linked immunosorbent assay (ELISA). Briefly, 96-well polystyrene plates were coated with 1-10 μg/mL of synthetic free or BSA-conjugated peptides in coating buffer (0.05M carbonate buffer, pH9.6, Millipore Sigma C3041) overnight at 4° C. Coated plates were then blocked with ELISA diluent (PBS+0.5% BSA+0.05% Tween20) for 1-hour, washed 3×300 μL in PBST (PBS+0.05% Tween20, Thermo 28352), and then the antibodies were added at various dilutions (100-1000×) in ELISA diluent. After 30 mins incubation (room temperature, with shaking), the plates were washed 3×300 μl in PBST. A secondary anti-mouse HRP antibody (Jackson Immunoresearch CAT #115-035-003) was added at a 1:1000 dilution in ELISA diluent (50 μL/well) and incubated for 30 minutes at room temperature with shaking. After a final set of washes (3×300 μl in PBST), 50 μL of TMB substrate (BioFx TMBW-1000-01) was added and the reaction was then quenched after 5-10 mins with 50 μL of stop solution (BioFx BSTP-1000-01). The quenched reaction wells were detected for absorbance at […] with a BioTek Synergy Microplate Reader using GENS 2.04 software.

MS4A6A ECL1 peptide [6] = molecular target: T3, MS4A6A ECL1 peptide; assay: peptide ELISA, hybridoma supernatant
Procedure: as §5

Binder | Kd (MS4A6A ECL2 peptide [1]) | koff (MS4A6A ECL2 peptide [1]) | kon (MS4A6A ECL2 peptide [1]) | ratio of APC MFI on MS4A6A+/HEK parental cells (cynomolgus (cyno) MS4A6A [2]) [ratio] | binding result (MS4A6A ECL1 peptide [3]) | ratio of APC MFI on MS4A6A+/HEK parental cells (cynomolgus (cyno) MS4A6A [4]) [ratio] | binding result (MS4A6A ECL2 peptide [5]) | binding result (BSA-MS4A6A-ECL2 peptide) | binding result (MS4A6A ECL1 peptide [6])
6A-3 (antibody, V domains shown, Mouse hybridoma antibody, tested as hybridoma supernatant (mouse IgG, detected or captured via anti-mouse IgG Fc); also called anti-MS4A6A antibody 6A-3) VH: EVQLQQSGPELVKPGASVKMSCKASGYTFTDYFMKWVKQSHGKSLEWIGDINPKNGDTFYNQKFKGKATLTVDKSSSTAYMQLNSLTSEDSAVYYCARPGYFDVWGAGTTVTVSS VL: not shown | 120 nM and 94 nM | 0.0006 s⁻¹ and 0.00065 s⁻¹ | 4800 M⁻¹ s⁻¹ and 6800 M⁻¹ s⁻¹ | 63.7 | no binding (tested: 2000 nM) | 24.1 |  |  | 
6A-20 (antibody, V domains shown, Mouse hybridoma antibody (SJL mouse), tested as hybridoma supernatant (mouse IgG, detected or captured via anti-mouse IgG Fc); also called anti-MS4A6A antibody 6A-20) VH: EVQLQQSGPELVKPGASVKMSCKASGYTFTDYFMKWVKQSHGKSLEWIGDINPKNGDTFYNQKFKGKATLTVDKSSSTAYMQLNSLTSEDSAVYYCARPGYFDVWGAGTTVTVSS VL: DIVMTQAAPSVPVTPGESVSISCRSSKSLLHSDGNTYLYWFLQRPGQSPQLLIYRMSNLAPGVPDRFSGSGSGTAFTLRISRVEAEDVGVYYCMQHLEFPFIFGAGTKLELK |  |  |  |  |  |  | no binding (tested: 2000 nM) | no binding | no binding
6A-10 (antibody, V domains shown, Mouse hybridoma antibody, tested as hybridoma supernatant (mouse IgG, detected or captured via anti-mouse IgG Fc); also called anti-MS4A6A antibody 6A-10) VH: QIQLVQSGPELKKPGETVKISCKASGYTFTNYGMNWVKQAPGKGLKWMGWINTYTGEPTYADDFKGRFAFSLETSASTAYLQINNLKNEDMATYFCARAYGNSAWFAYWGQGTLVTVSA VL: QIVLSQSPAILSASPGEKVTMTCRASSSVSYMHWYQQKPGSSPKPWIYATSNLASGVPARFSGSGSGTSYSLTISRVEAEDAATYYCQQWSSNPWTFGGGTKLEIK | 190 nM | 0.0013 s⁻¹ | 6600 M⁻¹ s⁻¹ | 95.2 |  | 18 |  |  | no binding
6A-7 (antibody, V domains shown, Mouse hybridoma antibody, tested as hybridoma supernatant (mouse IgG, detected or captured via anti-mouse IgG Fc); also called anti-MS4A6A antibody 6A-7) VH: QVQLQQSGAELARPGASVKMSCKASGYTFTSYAMHWVKQRPGQGLEWIGYINPSSGYTYYNQKFKDKATLTADKSSSTAYMQLSSLTSEDSAVYYCARSYYGNYEGYLDVWGAGTTVTVSS VL: NIVLTQSPASLAVSLGQRATISCRASESVESYGKSFIHWYQQKPGQPPKLLIFLASNLESGVPARFSGSGSRTDFTLTIDPVEADDAATYYCQQNNVGPYTFGGGTKLEIK |  |  |  | 8.3 |  | 3.6 | no binding (tested: 2000 nM) | no binding | no binding
6A-6 (antibody, V domains shown, Mouse hybridoma antibody, tested as hybridoma supernatant (mouse IgG, detected or captured via anti-mouse IgG Fc); also called anti-MS4A6A antibody 6A-6) VH: QIQLVQSGPELKKPGESVKISCKASGYTFANYGMNWVKLAPGKGLKWMGYINIYSGKSRYADDFKGRFAFSLETSASTAYLQINNLKNEDMATYFCARDNDYFDYWGQGTTLTVSS VL: DIVLTQSPATLSVTPGDTVSLSCRASQSISDNLHWYQQKSHESPGLLIKYASQSISGIPSRFSGRGSGTDFTLSINSVDSEDFGVYFCQQSNSWPYTFGGGTKLEIK |  |  |  | 62.1 |  | 13.5 |  | binds | no binding
6A-4 (antibody, V domains shown, Mouse hybridoma antibody, tested as hybridoma supernatant (mouse IgG, detected or captured via anti-mouse IgG Fc); also called anti-MS4A6A antibody 6A-4) VH: EVQLQQSGPELVKPGASVKISCKASGYSFTGYYMHWVKQSPEDSLEWIGAINPSTGGSTYSQKFKDKATLTVDKSSSTAYMQLKSLTSEESAVYYCTRFDGYGYWGQGTLVTVSA VL: DIVMTQAAFSNPVTLGTSASISCRSSKSLLHSNGITYLYWYLQKPGQSLQLLIYQMSNLASGVPDRFSGSGSGTDFTLRISRVEAEDVGVYYCAQNLELPWTFGGGTKLEIK |  |  |  | 16.2 |  | 5.4 | no binding (tested: 2000 nM) | no binding | no binding
6A-23 (antibody, V domains shown, Mouse hybridoma antibody, tested as hybridoma supernatant (mouse IgG, detected or captured via anti-mouse IgG Fc); also called anti-MS4A6A antibody 6A-23) VH: EVNLEESGGDLVQPGGSMKLSCLASGFTFSDAWMDWVRQSPEKGLEWVAEIKNKANNYVTFYAASVKGRFTISRDDSKSSVYLQMNSLRLEDTGIYFCTRGSVYGNWFPYWGQGTLVTVSA VL: DIVMSQSPSSLAVSAGEKVTMTCKSSQSLFNSRTRKNYLTWYQQKPGQSPKVLIYWASTRESGVPDRFTGSGSGTDFSLTINSVQADDLAVYYCKQSYNLLTFGAGTKLELK | 120 nM and 150 nM | 0.00065 s⁻¹ and 0.0008 s⁻¹ | 5400 M⁻¹ s⁻¹ and 5500 M⁻¹ s⁻¹ | 82 |  | 156 |  |  | no binding
6A-8 (antibody, V domains shown, Mouse hybridoma antibody, tested as hybridoma supernatant (mouse IgG, detected or captured via anti-mouse IgG Fc); also called anti-MS4A6A antibody 6A-8) VH: QVQLQQSGAELARPGTSVKLSCKASGYTFTDYYINWVKQRNGQGLEWIGEIYPRSGNAYYNEKFRGKATLTTDKSSSTAYMQLSGLTSEDSAVYFCARGDGNWYFDVWGAGTTVIVSS VL: DIVMTQSPSSLSVSAGEKVTMSCKSSQSLLNSGDQENYLVWYQQKPGQPPKLLIYGASTRESGVPDRFTGSGSGTDFTLTISSVLAEDLAVYYCQSDHSYPLTFGAGTKLELK | 170 nM | 0.001 s⁻¹ | 6300 M⁻¹ s⁻¹ | 69.5 |  | 26.7 |  |  | no binding
6A-2 (antibody, V domains shown, Mouse hybridoma antibody, tested as hybridoma supernatant (mouse IgG, detected or captured via anti-mouse IgG Fc); also called anti-MS4A6A antibody 6A-2) VH: DVQLQESGPGLVKPSQSLSLTCSVTGYSITSGYYWNWIRQFPGNKLEWLGYITYDGDTDYNPSLKNRVSITRDTSKNQFFLNLISVTPEDTATYYCAREDSFGYWGQGTLVTVSA VL: not shown | 200 nM and 120 nM | 0.001 s⁻¹ and 0.00098 s⁻¹ | 5300 M⁻¹ s⁻¹ and 8300 M⁻¹ s⁻¹ | 75.5 | no binding (tested: 2000 nM) | 25.7 |  |  | 
6A-17 (antibody, V domains shown, Mouse hybridoma antibody, tested as hybridoma supernatant (mouse IgG, detected or captured via anti-mouse IgG Fc); also called anti-MS4A6A antibody 6A-17) VH: QVQLKESGPGLVAPSQSLSITCTISGFSLTSYGVHWVRQPPGKGLEWLVVIWSDGSTTYNSALKSRLSISKDNSKSQVFLKMNGLQTDDTAMYYCARHRGNYPYYTMDYWGQGTSVTVSS VL: DIQMTQTTSSLSASLGDRVTISCRASQDISNYLNWYQQKPDGTVKLLIYYTSVLHSGVPSRFSGSGSGTDYSLTISNLEQEDIATYFCQQGNTLPWTFGGGTKLEIK |  |  |  | 178 |  | 19.3 | no binding (tested: 2000 nM) | no binding | no binding
